Reference: article PMC8908386

Molecular target: FLAG-MTA1^C (UniProt Q13330)
Experiment: affinity purification with mass spectrometry

UniProt Q13330, sequence (Q13330 449-715): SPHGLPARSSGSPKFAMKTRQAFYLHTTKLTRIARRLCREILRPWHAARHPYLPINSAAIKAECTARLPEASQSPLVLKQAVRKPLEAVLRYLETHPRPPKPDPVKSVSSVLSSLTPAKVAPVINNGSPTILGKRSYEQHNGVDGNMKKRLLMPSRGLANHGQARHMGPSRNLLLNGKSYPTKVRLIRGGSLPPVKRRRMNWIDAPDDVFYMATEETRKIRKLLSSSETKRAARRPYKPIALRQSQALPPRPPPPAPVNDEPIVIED

stoichiometry N (RBBP per MTA^C): 2.5
Substance: HA-RBBP4 (from UniProt Q09028 1-425) (natural protein)
